Measured values taken from the supplement of paper PMC12042874.
± gives the uncertainty stated by the source.

assay: amyloid nucleation score (Sup35N fusion, yeast selection) (log enrichment); library NNK2; higher = more nucleation; inactive = no reads after selection
In short: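 Peptides of 20 random codons, each fused to Sup35N, were expressed in psi-negative yeast. Cells were induced with 100 μM copper sulfate for 24 hours and grown 7 days at 30°C on medium lacking adenine and uracil, and plasmid inserts before and after selection were Illumina-sequenced. Nucleation scores are DiMSum log enrichments of output over input reads, centred on the mode score of non-aggregating sequences, and sequences under 100 input reads were excluded.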

| Substance | amyloid nucleation score |
| --- | --- |
| AFDLLDD | 0.904 ± 0.33 |
| DRGECYDLIGLCHSPVCCYP | -0.038 ± 0.42 |
| YKFRYWAYFFSDVAGVI | -1.75 ± 0.75 |
| SMDRIQEGLHRQLVFDVSE | 0.624 ± 0.35 |
| AAFVAYLAYFLMFSSCFCIY | inactive |
| LCTTNSLF | -0.671 ± 0.38 |
| CNRQAAMKAPSETCDVVACF | 4.52 ± 0.083 |
| WVGLHVR | 0.525 ± 0.36 |
| YRGINGTTGFQLWAPA | inactive |
| ASALGRWFTPHVSFIKYGGA | 0.531 ± 0.49 |
| LMYVCSLNNPLFMYANLL | 5.54 ± 0.084 |
| ITADNVKSNHKAVVMNDIHG | -0.133 ± 0.49 |
| FADTKDEGLYFGLMALLLEV | 0.016 ± 0.65 |
| RKNVYFIFPIISSLYKV | 7.009 ± 0.049 |
| CFIKVAVNWQL | 8.826 ± 0.057 |
| VAEVKRLHIYWRAPSFRSAN | -0.596 ± 0.79 |
| QQCLINVSSRLLAGVNACSM | 1.22 ± 0.34 |
| NYMYGLNSVKSVGWLSDI | 0.069 ± 0.46 |
| RFNIFVLLFLVPEVGLHMVV | inactive |
| WRYGNDYTFLIMDGC | -0.511 ± 0.37 |
| GSYSWSELSCMLFLFVGVSR | 0.411 ± 0.53 |
| FGQIRCWYTMICYGQDIGFT | 6.37 ± 0.047 |
| NSLGRYSFRFVRCEGVWKTR | -0.88 ± 0.76 |
| CCCASR | inactive |
| AECNRHLLQAVSLY | -0.256 ± 0.29 |

| Substance | amyloid nucleation score |
| --- | --- |
| PIKCDRSFWRR | 1.49 ± 0.22 |
| SIMGYGFDVRCELCDVTGGW | -0.079 ± 0.53 |
| YMFYPNCRSRC | 0.59 ± 0.15 |
| YYSMGSTCGILDQDSLNVDQ | -1.34 ± 0.39 |
| WLDSQWNLYLDLYHLYRSCR | 3.22 ± 0.12 |
| GLPPVC | 0.851 ± 0.22 |
| IQGFGLKLVEIYWEARQLVH | inactive |
| YMSIHSKAGMVSLDLKCLCT | -0.427 ± 1 |
| FRVKRL | -1.19 ± 1.1 |
| GVTVKGAVIFYRY | 6.47 ± 0.074 |
| YVIQMYLSEATGCYVFTYFF | 0.368 ± 0.33 |
| SSQFR | 0.705 ± 0.44 |
| SKFVSKSEV | -0.983 ± 1.1 |
| FKLFMLSSFSLMM | 0.182 ± 1.1 |
| AGFYHPSNFGCLGSGLLRTM | inactive |
| AGKSTHLFLRAVVLLCGNPR | 0.05 ± 0.35 |
| NLHVGREPQGSEYVDPFSVV | 0.731 ± 0.25 |
| TYLMSFICNNLRVDIANINR | 0.141 ± 0.3 |
| SKCVWIKDQNFFQVDTNESI | 1.73 ± 0.34 |
| ALNGFVYALLAGPGQRLIKP | 1.36 ± 0.53 |
| VSFWFVFFWMISTRSEMMDR | -1.08 ± 0.53 |
| IHKAGFKDKGC | inactive |
| RFVVSEGLIGVVGSSKLILY | 0.106 ± 1 |
| VDRFFLEARCLELTSQ | 0.34 ± 0.5 |
| NWHGSIFFIW | 5.708 ± 0.049 |

| Substance | amyloid nucleation score |
| --- | --- |
| KYYRQSCQDRPILFDVALYY | inactive |
| FMMIRV | inactive |
| RVLVSS | 0.713 ± 0.8 |
| MSFRSRPGLDDGWMIRWRGR | 0.446 ± 0.49 |
| NRAAKRGIRRHMSSYTYARV | 0.153 ± 0.36 |
| ADHELVVITDVGFRLGSTGD | -0.226 ± 0.37 |
| HTDSLLWIPRVHFCVFF | inactive |
| VAFKSTLQVLVANKFG | -0.627 ± 1 |
| TIGTVMNSLSHFLRPAR | 1.15 ± 0.21 |
| TGFGTSMFSKLYVNVNYL | 5.37 ± 0.072 |
| IRKYVAWNLRALTMAMIQQR | -0.959 ± 0.48 |
| LPIPIKETHLSCWAVDVGFD | -0.052 ± 0.2 |
| RSCYNFGKGLCVFMTLARLW | -0.82 ± 0.48 |
| SFDIPT | -0.444 ± 0.63 |
| GVLRQEFYKSANNSMKQWLF | inactive |
| YWEDNWAPNIQDLWQRRRCG | 0.743 ± 0.81 |
| FNLMSMIRNRH | -0.548 ± 0.79 |
| MWSLRYTVGLEDCG | 0.897 ± 0.34 |
| TDSYPVLDLHPGSYRVH | 0.397 ± 0.39 |
| VVEFNVLHDDLEVQDKT | -1.16 ± 0.56 |
| LNVVARMFYLSLSSSGNWSG | -0.849 ± 0.64 |
| NKEECL | 0.021 ± 0.35 |
| IGVQVFPRMHVG | 3.06 ± 0.15 |
| NIPLLLMFHSTIWFKMHIWE | 1.51 ± 0.11 |
| FLRIVSNVLKWQRA | 2.83 ± 0.069 |

| Substance | amyloid nucleation score |
| --- | --- |
| LNHCG | 0.738 ± 0.55 |
| YCYVSRVFYRMCALAGWMGL | inactive |
| LCWSYCRVKCGHMFVGVRGS | 0.58 ± 0.56 |
| HSFNPNTCYLKGIDDALLGF | -0.838 ± 0.62 |
| FASALNYTLYWSSSLTLFAL | 2.54 ± 0.067 |
| YLLALRCLFLLYRVYWFSIE | -0.129 ± 0.39 |
| RASVFF | inactive |
| TGVFHSVCNIWCFHSKDPSN | 7.54 ± 0.076 |
| WSDACSGCNFK | inactive |
| YLGCRDPTRCFLLVHVPDLY | -0.127 ± 1 |
| CKEYMMIFMTIIKVYLNTYL | -0.698 ± 0.78 |
| RGINKTDIFVFELCVHDVCL | 2.58 ± 0.16 |
| IYYNGFVQCGLLIEGLITSY | 2.39 ± 0.092 |
| FHYRFFVVMIRGCSFWHFQL | -1.57 ± 0.49 |
| ASQIDSLVRNRNCLNSTKIG | -0.23 ± 0.44 |
| SIWINFLNLWYQCFISSILG | inactive |
| SDCLGKSVVVYNLLGFGR | 4.791 ± 0.045 |
| PGAADRTVRYGSRRPPD | -0.003 ± 0.41 |
| CRLADFAPFRHCFFSHDCSR | 3.57 ± 0.046 |
| VWQQS | 0.668 ± 0.49 |
| LSFISRRDNDGYMICEYSLP | 0.264 ± 0.65 |
| ILKIYVGQSSPLYFACLHIK | inactive |
| TFCICPFNAEV | 7.35 ± 0.029 |
| YALAAVSRFG | 0.22 ± 0.55 |
| MNFCNHPLMDLMVSDLAWWM | 0.112 ± 0.37 |

| Substance | amyloid nucleation score |
| --- | --- |
| GYRYWRTACSALFRWSEMC | 0.948 ± 0.26 |
| WLWIKLEPLICSNFCWVVLW | 0.537 ± 0.48 |
| YMIYCFITVGCFISTLHYCG | 1.68 ± 0.15 |
| GSPLLVNDQSDGMYTSEISF | -1.32 ± 1.1 |
| GSYGQVHSWYVCDFPGWVLR | 0.438 ± 0.57 |
| FTFTRQSAGAHRYDIFVPRT | 0.17 ± 0.41 |
| RRRCYHTVSKFRWNIQSAVT | -0.337 ± 1 |
| YLQVWYTREFYIFRGKMDLL | inactive |
| TSPSYVTSCYRFVKEIDHWK | -1.29 ± 1.1 |
| NVPCGYEWSFNLCIMGEASS | 6.842 ± 0.049 |
| MFMSQIPYQCGVKSNSVISK | -0.357 ± 0.49 |
| PLQPTQTYPFNSVFDGHKRV | inactive |
| DLSDIDRCGRLVNRESILLR | 1.45 ± 0.5 |
| DLLQREIDRSIVRLWIMEKG | 0.252 ± 0.49 |
| LVKTVDYAALPRICDVGRGQ | 3.96 ± 0.075 |
| FKFTWRTFESNNLMVRVWLL | -1.29 ± 0.55 |
| GPLRNEASGIWKKPGQCMTD | -0.813 ± 0.76 |
| VLWIGFYLNLYLPYLCNHVD | 3.37 ± 0.076 |
| SWGGLSKGYCLFQSWRVVLG | 3.75 ± 0.054 |
| RLLAGIFLEEKFYPRPSDIL | 3.69 ± 0.13 |
| SVVFDYCSGIVSRY | -0.483 ± 1.1 |
| PADPNCIFVIS | -1.25 ± 0.44 |
| VVVPDGFRNYEYGNSTLFVI | -0.99 ± 1.1 |
| WDSDRSYVLSLFADVPLAKC | 0.035 ± 1 |
| GIFWTVNIGEICGAIEWSEG | 0.276 ± 0.29 |

| Substance | amyloid nucleation score |
| --- | --- |
| TNTSFQRCGLWLTMGYGRYH | -0.286 ± 0.3 |
| DANTRGHSCRNCM | 0.195 ± 0.76 |
| TSFHYCCSR | 6.146 ± 0.03 |
| DWQYRLKSVLVFRWQ | 3.5 ± 0.15 |
| SVKNR | 3.51 ± 0.049 |
| YMLTIRFICFGAVGHSDMHE | 0.672 ± 0.18 |
| PWCESLCVRRGAESVSTWVK | 1.2 ± 0.22 |
| EILYFSTAFYLSTWEDTIFT | inactive |
| GKVGWDCCISQIYCLDLFIP | 8.292 ± 0.047 |
| NVYVESSWVLARVIWRFYFD | -0.722 ± 0.62 |
| YCPPFLHNTWAYAKRTGRGS | -0.137 ± 0.61 |
| LVITTMDDLKCDRAVVGPMW | -0.174 ± 0.76 |
| AYYCLRDLEVEYKVGYGSRL | 2.64 ± 0.21 |
| YLYKCNM | inactive |
| CNGLAQKIILSTRRLLLVPG | 0.537 ± 0.34 |
| ICLFDY | -2.02 ± 0.62 |
| LFGHRFPSYL | -0.152 ± 1 |
| KWKLMCDAFLS | -0.969 ± 0.48 |
| NFACVFHGVDFYRTDSSCRK | 5.17 ± 0.072 |
| CVSDCD | 3.45 ± 0.14 |
| NYDRTIW | -1.01 ± 0.48 |
| KYTVSLVDLGCFQSKGCDST | inactive |
| AFEFIPSKPRW | 0.667 ± 0.66 |
| PVGWSNRFRTMLPDS | 0.861 ± 0.48 |
| GNYHFCRERGRVACW | -0.378 ± 1 |

| Substance | amyloid nucleation score |
| --- | --- |
| LKDVGPYQRVRRGTVRYA | 0.756 ± 0.4 |
| PLVTCHDDEVQGMKFVSFFI | -0.451 ± 0.76 |
| YFRNDNGLWEINSCRILFIV | inactive |
| GTRTISLKGPSGYYA | -0.689 ± 0.41 |
| SWLYLPWLLLQARILHR | -0.197 ± 0.24 |
| IWTSRQTTIEAITRAHNPST | 3.83 ± 0.084 |
| VAEYGLENDWFLHWQICMNS | -0.618 ± 0.48 |
| AYYSVSC | 3 ± 0.11 |
| ARKISV | inactive |
| YNLNCHLFSAWTFNYKIAFL | 5.958 ± 0.043 |
| FRVWSFFLNF | 3.12 ± 0.1 |
| SDTKCLHY | inactive |
| DIWIMI | -0.225 ± 0.45 |
| STMAGTLW | 0.051 ± 0.4 |
| GVNARQGSHDLVLRIVR | 7.39 ± 0.075 |
| VLMYIWDLVGGSLSFKKVLF | inactive |
| EFHVRGDSDGYC | -1.41 ± 1.1 |
| RFWIEVEVYDVISFVYLERW | 0.428 ± 0.34 |
| MTVLV | 1.12 ± 0.26 |
| LITINLSV | 8.427 ± 0.049 |
| LYKAGIGILLTGVILVF | -1.12 ± 0.6 |
